Results reported in PMC12664392 (iScience, 2025).
Residue numbers refer to the chain shown, from its start. Values belong to the binder of their own block, whether it stands above or below them.

What was measured:
[1] = biological target: HLA-A*0201/NY-ESO1(157-165)(9V) complex, refolded and biotinylated (human, p9C to valine (9V) (stands in the printed letters), biotin on the Avi tag); assay: SPR; ProteOn; the methods tell an inverse set-up (MRGS-6His tagged DARPin captured by an immobilised RGS-His antibody on a GLC chip) and also HLA-A*0201/peptide targets on a neutravidin chip at different dilutions; HEPES buffer; conditions: both partners purified
CD3ε = CD3ε (UniProt P07766 23-207, SPR construct not described; extracellular domain taken by convention from the UniProt topology. In cell assays CD3ε is full mature chain in the TCR/CD3 complex); assay: SPR; Listed KD-values were obtained by surface plasmon resonance; format, CD3ε construct and conditions not told
Sequence of CD3ε (P07766 23-207): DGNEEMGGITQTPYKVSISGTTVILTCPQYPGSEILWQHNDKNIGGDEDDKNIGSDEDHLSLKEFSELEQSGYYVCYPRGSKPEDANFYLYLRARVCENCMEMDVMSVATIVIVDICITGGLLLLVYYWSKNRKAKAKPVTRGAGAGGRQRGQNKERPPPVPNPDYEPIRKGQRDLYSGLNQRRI

Kd [1]: 1.23 nM
koff [1]: 0.00113 s⁻¹
kon [1]: 925000 M⁻¹ s⁻¹
B1: NY_1xCD3 (bispecific DARPin T cell engager: HLA-A*0201/NY-ESO1(157-165)-specific DARPin NY_1 linked to a CD3ε-specific DARPin) (designed binder)
chain: DLGKKLLQAARAGQLDEVRELLKAGADVNAKDLIGVTPLHLAAFSGHLEIVEVLLKASADVNAKDVSGRTPLHVAAKHGHLEIVEVLLKAGADVNAKDLIGFTPLHLAAQFGHLEIVEVLLKAGADVNAQDKSGKTPADLAARAGHQDIAEVLQKAAGSPTPTPTTPTPTPTTPTPTPTGSDLGQKLLEAAWAGQDDEVRELLKAGADVNAKNSRGWTPLHTAAQTGHLEIFEVLLKAGADVNAKNDKRVTPLHLAAALGHLEIVEVLLKAGADVNARDSWGTTPADLAAKYGHQDIAEVLQKAA

Kd (CD3ε): 35 ± 21 nM
B2: CD3ε-specific DARPin version 1 (designed binder)
chain: DLGQKLLEAAWAGQDDEVRELLKAGADVNAKNSRGWTPLHTAAQTGHLEIFEVLLKAGADVNAKDDKGVTPLHLAAALGHLEIVEVLLKAGADVNAQDSWGTTPADLAAKYGHEDIAEVLQKAA
notes: four repeats (N-cap/ IR1/ IR2/ C-cap) joined in the printed order; also called CD3-v1; variant-1 (v1)

Kd (CD3ε): 14 ± 3 nM
B3: CD3ε-specific DARPin version 2 (designed binder)
chain: B2 chain with D65N, G68R, Q97R, E114Q
notes: four repeats (N-cap/ IR1/ IR2/ C-cap) joined in the printed order; also called CD3-v2; CD3v2

Kd (CD3ε): 6 nM
B4: CD3ε-specific DARPin version 3 (designed binder)
chain: B2 chain with D15L, E20I, D65T, D66N, G68R, Q97R, S99T, E114R
notes: four repeats (N-cap/ IR1/ IR2/ C-cap) joined in the printed order; also called CD3-v3; CD3v3
